Experimental data as given in the supplement of paper PMC10065799, “High-throughput profiling of sequence recognition by tyrosine kinases and SH2 domains using bacterial peptide display” (eLife, 2023).
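Note: 11-residue human phosphosite peptides and single-mutation variants displayed on the E. coli surface, counted by deep sequencing, each peptide's frequency after selection divided by its frequency in the unselected input library; frequency after pTyr selection over input frequency; kinase dosed for 20-30% of maximal phosphorylation in three min.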

The sequences below were run against Fes (UniProt P07332) (assay: phosphorylation enrichment, bacterial display (enrichment ratio); higher = better substrate or ligand; peptides without Tyr show the background).
Chain of Fes (P07332 whole entry, looked up): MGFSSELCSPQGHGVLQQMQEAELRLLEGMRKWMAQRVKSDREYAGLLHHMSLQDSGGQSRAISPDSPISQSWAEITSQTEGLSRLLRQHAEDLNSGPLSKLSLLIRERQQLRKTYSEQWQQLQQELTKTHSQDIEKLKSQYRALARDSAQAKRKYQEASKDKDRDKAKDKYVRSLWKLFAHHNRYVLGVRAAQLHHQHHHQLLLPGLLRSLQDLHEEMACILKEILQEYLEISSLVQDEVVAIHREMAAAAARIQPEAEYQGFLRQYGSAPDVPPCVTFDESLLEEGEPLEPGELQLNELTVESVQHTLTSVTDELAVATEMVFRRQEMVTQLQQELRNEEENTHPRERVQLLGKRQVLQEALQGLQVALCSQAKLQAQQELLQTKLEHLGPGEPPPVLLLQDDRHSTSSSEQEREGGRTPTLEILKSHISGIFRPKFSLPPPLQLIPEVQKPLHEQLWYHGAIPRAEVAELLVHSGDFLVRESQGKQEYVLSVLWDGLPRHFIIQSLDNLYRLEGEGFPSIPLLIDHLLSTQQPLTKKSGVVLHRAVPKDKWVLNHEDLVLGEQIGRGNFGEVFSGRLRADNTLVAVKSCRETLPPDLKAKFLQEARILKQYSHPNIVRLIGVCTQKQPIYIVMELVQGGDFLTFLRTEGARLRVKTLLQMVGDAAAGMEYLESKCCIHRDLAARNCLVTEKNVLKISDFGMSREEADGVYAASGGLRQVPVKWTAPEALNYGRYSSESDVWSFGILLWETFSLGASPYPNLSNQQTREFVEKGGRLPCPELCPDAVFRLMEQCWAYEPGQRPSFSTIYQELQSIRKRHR
IWGKKYPTCNS [PTPRZ1_Y53_N48I] was tested, and the phosphorylation enrichment was 0.776. In the case of IINENYDYLKV [NUP98_Y1664_G1669V], the phosphorylation enrichment is reported as 1.1. Work on PTTKTYFPRFD [HBA1_Y43_H46R] yielded a phosphorylation enrichment of 0.772. Work on FQQLFYLLQIN [IQGAP2_Y890_T894I_YF] yielded a phosphorylation enrichment of 1.76. Work on AVHPGYGFLSE [PCCA_Y143] yielded a phosphorylation enrichment of 0.99. Sequence PNATLYKMTSI [SERPINA7_Y40_S43T] has a phosphorylation enrichment of 1.5. In the case of EYKKKYSDADI [CKAP5_Y1860], the phosphorylation enrichment is reported as 0.819. Sequence PQGVSYIYTID [DCX_Y103_R102S] has a phosphorylation enrichment of 1.79. VDGSLYKTHPQ [HK1_Y417] showed a phosphorylation enrichment of 0.556. Sequence KKLAEYGPQGK [CLCA1_Y147_R152K] has a phosphorylation enrichment of 0.498. SDPIIYTLENV [ADGRE1_Y534_I539V] gave a phosphorylation enrichment of 1.38. Work on DVSKEYGHLLP [HRC_Y99] yielded a phosphorylation enrichment of 1.09. DKVFTYIFIME [SCN4A_Y1074] showed a phosphorylation enrichment of 1.53. With IGEGTYGQVYK [CDK13_Y716] the phosphorylation enrichment was 0.822. In the case of TNEYEYDELIV [TGM1_Y136_D132N], the phosphorylation enrichment is reported as 1.23. In the case of LTQRTYMSENA [GPAA1_Y49], the phosphorylation enrichment is reported as 0.613. QMRLRYLAAEE [CEP120_Y884] gave a phosphorylation enrichment of 1.41. Work on RVSSVYTRSTG [CCR5_Y339_A335V] yielded a phosphorylation enrichment of 1.22. With AEFGLYGAMVR [VSX2_Y222_YF] the phosphorylation enrichment was 1.21. Sequence ADQLDYIKALN [HPRT1_Y81_L78Q] has a phosphorylation enrichment of 1.22. Work on TRTDAYAVSSF yielded a phosphorylation enrichment of 0.657. TLNHQYDYTFD [CSNK1A1_Y292] showed a phosphorylation enrichment of 0.964. Sequence FGVTLYPNSRE [MEP1A_Y472] has a phosphorylation enrichment of 1.17. With DQVEQYNKELE [LMNA_Y259_K260N] the phosphorylation enrichment was 1.23. Sequence HEHKGYNANFC [TGFB2_Y341_P338H] has a phosphorylation enrichment of 0.928. LGSNGCKKLLK [SEPSECS_Y334_Y334C] gave a phosphorylation enrichment of 0.826. KNGSNYVVKGN [KIT_Y823_D820G] showed a phosphorylation enrichment of 0.576. Sequence WEPFGYAVTRC [PTPRT_Y412] has a phosphorylation enrichment of 0.999. With RSFLSYFTSHV [NEFL_Y442_P440L_YF] the phosphorylation enrichment was 1.8. Sequence ADELEYSRTGL [MMUT_Y287_G284E] has a phosphorylation enrichment of 0.972. Sequence IIGNGYYFHVF [MYBPC3_Y1135_R1138H] has a phosphorylation enrichment of 1.22. Sequence YLQEIHNSNNQ [FGG_Y140_Y140H] has a phosphorylation enrichment of 0.63. In the case of EQPNPYMVLDI [ROCK2_Y1197_S1194P], the phosphorylation enrichment is reported as 1.07.

These sequences were tested against EPHB1 (UniProt P54762) in the same assay as above.
Chain of EPHB1 (P54762 whole entry, looked up): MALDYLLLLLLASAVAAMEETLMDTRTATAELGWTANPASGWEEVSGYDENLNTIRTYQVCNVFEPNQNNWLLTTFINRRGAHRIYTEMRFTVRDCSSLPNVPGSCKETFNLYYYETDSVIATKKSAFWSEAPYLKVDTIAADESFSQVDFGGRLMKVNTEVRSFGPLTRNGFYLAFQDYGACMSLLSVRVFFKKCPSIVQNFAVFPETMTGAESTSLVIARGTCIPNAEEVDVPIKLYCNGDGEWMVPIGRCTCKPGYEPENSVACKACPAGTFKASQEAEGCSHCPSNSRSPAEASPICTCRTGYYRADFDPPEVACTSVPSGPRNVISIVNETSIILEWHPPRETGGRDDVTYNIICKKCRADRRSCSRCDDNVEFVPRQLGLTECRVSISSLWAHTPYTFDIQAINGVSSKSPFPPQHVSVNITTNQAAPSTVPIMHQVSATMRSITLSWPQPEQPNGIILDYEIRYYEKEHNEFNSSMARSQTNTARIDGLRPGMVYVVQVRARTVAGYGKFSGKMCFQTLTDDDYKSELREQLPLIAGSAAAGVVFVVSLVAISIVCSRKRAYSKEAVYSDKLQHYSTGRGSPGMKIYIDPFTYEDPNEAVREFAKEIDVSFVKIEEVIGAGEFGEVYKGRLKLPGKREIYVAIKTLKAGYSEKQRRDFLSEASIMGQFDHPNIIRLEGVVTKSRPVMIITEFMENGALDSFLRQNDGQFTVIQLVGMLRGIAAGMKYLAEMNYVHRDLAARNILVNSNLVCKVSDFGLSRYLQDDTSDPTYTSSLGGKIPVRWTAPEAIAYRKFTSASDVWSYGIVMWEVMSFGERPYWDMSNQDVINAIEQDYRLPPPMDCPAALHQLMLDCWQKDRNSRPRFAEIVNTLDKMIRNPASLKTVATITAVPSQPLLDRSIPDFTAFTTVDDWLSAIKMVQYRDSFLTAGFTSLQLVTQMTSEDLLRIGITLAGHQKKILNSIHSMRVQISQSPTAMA
With IWGKKYPTCNS [PTPRZ1_Y53_N48I] the phosphorylation enrichment was 0.441. For IINENYDYLKV [NUP98_Y1664_G1669V], the phosphorylation enrichment was 1.05. For PTTKTYFPRFD [HBA1_Y43_H46R], the phosphorylation enrichment was 0.493. FQQLFYLLQIN [IQGAP2_Y890_T894I_YF] showed a phosphorylation enrichment of 0.82. AVHPGYGFLSE [PCCA_Y143] gave a phosphorylation enrichment of 0.46. With PNATLYKMTSI [SERPINA7_Y40_S43T] the phosphorylation enrichment was 0.642. EYKKKYSDADI [CKAP5_Y1860] was tested, and the phosphorylation enrichment was 0.393. PQGVSYIYTID [DCX_Y103_R102S] was tested, and the phosphorylation enrichment was 0.985. VDGSLYKTHPQ [HK1_Y417] was tested, and the phosphorylation enrichment was 0.436. KKLAEYGPQGK [CLCA1_Y147_R152K] showed a phosphorylation enrichment of 0.334. Work on SDPIIYTLENV [ADGRE1_Y534_I539V] yielded a phosphorylation enrichment of 0.5. DVSKEYGHLLP [HRC_Y99] was tested, and the phosphorylation enrichment was 0.743. With DKVFTYIFIME [SCN4A_Y1074] the phosphorylation enrichment was 0.645. Sequence IGEGTYGQVYK [CDK13_Y716] has a phosphorylation enrichment of 0.889. TNEYEYDELIV [TGM1_Y136_D132N] showed a phosphorylation enrichment of 0.814. In the case of LTQRTYMSENA [GPAA1_Y49], the phosphorylation enrichment is reported as 0.364. QMRLRYLAAEE [CEP120_Y884] showed a phosphorylation enrichment of 0.741. With RVSSVYTRSTG [CCR5_Y339_A335V] the phosphorylation enrichment was 0.945. Work on AEFGLYGAMVR [VSX2_Y222_YF] yielded a phosphorylation enrichment of 0.741. For ADQLDYIKALN [HPRT1_Y81_L78Q], the phosphorylation enrichment was 0.784. TRTDAYAVSSF gave a phosphorylation enrichment of 0.383. TLNHQYDYTFD [CSNK1A1_Y292] was tested, and the phosphorylation enrichment was 0.512. FGVTLYPNSRE [MEP1A_Y472] showed a phosphorylation enrichment of 0.675. For DQVEQYNKELE [LMNA_Y259_K260N], the phosphorylation enrichment was 0.683. With HEHKGYNANFC [TGFB2_Y341_P338H] the phosphorylation enrichment was 0.505. Sequence LGSNGCKKLLK [SEPSECS_Y334_Y334C] has a phosphorylation enrichment of 0.611. KNGSNYVVKGN [KIT_Y823_D820G] showed a phosphorylation enrichment of 0.346. In the case of WEPFGYAVTRC [PTPRT_Y412], the phosphorylation enrichment is reported as 0.591. RSFLSYFTSHV [NEFL_Y442_P440L_YF] gave a phosphorylation enrichment of 0.759. ADELEYSRTGL [MMUT_Y287_G284E] was tested, and the phosphorylation enrichment was 0.596. Sequence IIGNGYYFHVF [MYBPC3_Y1135_R1138H] has a phosphorylation enrichment of 0.518. With YLQEIHNSNNQ [FGG_Y140_Y140H] the phosphorylation enrichment was 0.427. For EQPNPYMVLDI [ROCK2_Y1197_S1194P], the phosphorylation enrichment was 0.653.

Each sequence was assayed against Jak2 (UniProt O60674) in the same assay as above.
Chain of Jak2 (O60674 whole entry, looked up): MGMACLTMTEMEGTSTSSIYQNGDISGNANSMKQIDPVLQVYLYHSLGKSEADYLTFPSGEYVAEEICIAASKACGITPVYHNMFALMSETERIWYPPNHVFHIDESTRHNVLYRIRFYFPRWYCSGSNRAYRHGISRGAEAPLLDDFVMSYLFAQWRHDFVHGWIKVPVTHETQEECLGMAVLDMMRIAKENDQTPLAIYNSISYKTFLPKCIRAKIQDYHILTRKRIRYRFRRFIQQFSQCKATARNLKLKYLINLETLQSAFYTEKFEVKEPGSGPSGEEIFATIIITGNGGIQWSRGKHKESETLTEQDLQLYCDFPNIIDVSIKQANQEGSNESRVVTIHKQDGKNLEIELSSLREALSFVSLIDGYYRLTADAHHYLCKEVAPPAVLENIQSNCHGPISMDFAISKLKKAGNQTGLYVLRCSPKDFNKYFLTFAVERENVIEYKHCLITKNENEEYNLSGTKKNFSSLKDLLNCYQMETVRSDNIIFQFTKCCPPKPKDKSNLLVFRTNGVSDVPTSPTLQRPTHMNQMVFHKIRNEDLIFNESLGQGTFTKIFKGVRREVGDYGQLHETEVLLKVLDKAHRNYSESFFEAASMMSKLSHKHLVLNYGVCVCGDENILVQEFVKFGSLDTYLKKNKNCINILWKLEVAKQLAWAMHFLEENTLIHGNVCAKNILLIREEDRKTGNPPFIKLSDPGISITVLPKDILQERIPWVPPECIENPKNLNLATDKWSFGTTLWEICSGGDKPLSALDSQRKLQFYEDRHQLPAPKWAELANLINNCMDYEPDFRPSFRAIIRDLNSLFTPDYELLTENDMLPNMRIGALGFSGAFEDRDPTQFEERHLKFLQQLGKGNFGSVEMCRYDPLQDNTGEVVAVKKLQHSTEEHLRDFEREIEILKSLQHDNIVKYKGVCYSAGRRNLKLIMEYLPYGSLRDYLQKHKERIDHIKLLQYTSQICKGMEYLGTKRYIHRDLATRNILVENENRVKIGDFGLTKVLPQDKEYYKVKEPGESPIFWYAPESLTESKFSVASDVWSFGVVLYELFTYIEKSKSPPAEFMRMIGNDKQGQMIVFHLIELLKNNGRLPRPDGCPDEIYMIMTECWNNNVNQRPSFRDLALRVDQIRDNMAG
IWGKKYPTCNS [PTPRZ1_Y53_N48I] gave a phosphorylation enrichment of 0.667. For IINENYDYLKV [NUP98_Y1664_G1669V], the phosphorylation enrichment was 0.956. For PTTKTYFPRFD [HBA1_Y43_H46R], the phosphorylation enrichment was 0.731. For FQQLFYLLQIN [IQGAP2_Y890_T894I_YF], the phosphorylation enrichment was 1.47. AVHPGYGFLSE [PCCA_Y143] gave a phosphorylation enrichment of 0.82. PNATLYKMTSI [SERPINA7_Y40_S43T] showed a phosphorylation enrichment of 1.16. Sequence EYKKKYSDADI [CKAP5_Y1860] has a phosphorylation enrichment of 0.671. PQGVSYIYTID [DCX_Y103_R102S] gave a phosphorylation enrichment of 1.55. With VDGSLYKTHPQ [HK1_Y417] the phosphorylation enrichment was 0.409. KKLAEYGPQGK [CLCA1_Y147_R152K] showed a phosphorylation enrichment of 0.366. For SDPIIYTLENV [ADGRE1_Y534_I539V], the phosphorylation enrichment was 0.945. For DVSKEYGHLLP [HRC_Y99], the phosphorylation enrichment was 0.687. In the case of DKVFTYIFIME [SCN4A_Y1074], the phosphorylation enrichment is reported as 1.35. For IGEGTYGQVYK [CDK13_Y716], the phosphorylation enrichment was 0.822. In the case of TNEYEYDELIV [TGM1_Y136_D132N], the phosphorylation enrichment is reported as 1.29. Sequence LTQRTYMSENA [GPAA1_Y49] has a phosphorylation enrichment of 0.65. QMRLRYLAAEE [CEP120_Y884] was tested, and the phosphorylation enrichment was 1.3. RVSSVYTRSTG [CCR5_Y339_A335V] was tested, and the phosphorylation enrichment was 1.02. AEFGLYGAMVR [VSX2_Y222_YF] was tested, and the phosphorylation enrichment was 0.868. ADQLDYIKALN [HPRT1_Y81_L78Q] was tested, and the phosphorylation enrichment was 0.861. TRTDAYAVSSF showed a phosphorylation enrichment of 1.08. TLNHQYDYTFD [CSNK1A1_Y292] gave a phosphorylation enrichment of 0.783. With FGVTLYPNSRE [MEP1A_Y472] the phosphorylation enrichment was 0.92. DQVEQYNKELE [LMNA_Y259_K260N] gave a phosphorylation enrichment of 1.17. Sequence HEHKGYNANFC [TGFB2_Y341_P338H] has a phosphorylation enrichment of 0.642. With LGSNGCKKLLK [SEPSECS_Y334_Y334C] the phosphorylation enrichment was 1.06. Sequence KNGSNYVVKGN [KIT_Y823_D820G] has a phosphorylation enrichment of 0.484. With WEPFGYAVTRC [PTPRT_Y412] the phosphorylation enrichment was 0.915. RSFLSYFTSHV [NEFL_Y442_P440L_YF] showed a phosphorylation enrichment of 1.1. Sequence ADELEYSRTGL [MMUT_Y287_G284E] has a phosphorylation enrichment of 0.741. With IIGNGYYFHVF [MYBPC3_Y1135_R1138H] the phosphorylation enrichment was 1.19. YLQEIHNSNNQ [FGG_Y140_Y140H] showed a phosphorylation enrichment of 0.563. EQPNPYMVLDI [ROCK2_Y1197_S1194P] was tested, and the phosphorylation enrichment was 1.06.

These sequences were tested on Fer (mouse) in the same assay as above.
With IWGKKYPTCNS [PTPRZ1_Y53_N48I] the phosphorylation enrichment was 0.518. IINENYDYLKV [NUP98_Y1664_G1669V] was tested, and the phosphorylation enrichment was 2.24. Work on PTTKTYFPRFD [HBA1_Y43_H46R] yielded a phosphorylation enrichment of 0.505. With FQQLFYLLQIN [IQGAP2_Y890_T894I_YF] the phosphorylation enrichment was 0.658. AVHPGYGFLSE [PCCA_Y143] showed a phosphorylation enrichment of 0.545. In the case of PNATLYKMTSI [SERPINA7_Y40_S43T], the phosphorylation enrichment is reported as 0.477. Sequence EYKKKYSDADI [CKAP5_Y1860] has a phosphorylation enrichment of 0.399. PQGVSYIYTID [DCX_Y103_R102S] was tested, and the phosphorylation enrichment was 0.728. In the case of VDGSLYKTHPQ [HK1_Y417], the phosphorylation enrichment is reported as 0.421. KKLAEYGPQGK [CLCA1_Y147_R152K] was tested, and the phosphorylation enrichment was 0.326. Work on SDPIIYTLENV [ADGRE1_Y534_I539V] yielded a phosphorylation enrichment of 5.1. DVSKEYGHLLP [HRC_Y99] showed a phosphorylation enrichment of 0.656. In the case of DKVFTYIFIME [SCN4A_Y1074], the phosphorylation enrichment is reported as 0.658. Sequence IGEGTYGQVYK [CDK13_Y716] has a phosphorylation enrichment of 0.813. TNEYEYDELIV [TGM1_Y136_D132N] was tested, and the phosphorylation enrichment was 0.593. With LTQRTYMSENA [GPAA1_Y49] the phosphorylation enrichment was 0.429. QMRLRYLAAEE [CEP120_Y884] showed a phosphorylation enrichment of 0.563. RVSSVYTRSTG [CCR5_Y339_A335V] was tested, and the phosphorylation enrichment was 0.984. In the case of AEFGLYGAMVR [VSX2_Y222_YF], the phosphorylation enrichment is reported as 0.828. For ADQLDYIKALN [HPRT1_Y81_L78Q], the phosphorylation enrichment was 0.451. Work on TRTDAYAVSSF yielded a phosphorylation enrichment of 0.405. TLNHQYDYTFD [CSNK1A1_Y292] showed a phosphorylation enrichment of 0.432. Work on FGVTLYPNSRE [MEP1A_Y472] yielded a phosphorylation enrichment of 0.398. DQVEQYNKELE [LMNA_Y259_K260N] was tested, and the phosphorylation enrichment was 0.494. In the case of HEHKGYNANFC [TGFB2_Y341_P338H], the phosphorylation enrichment is reported as 0.698. Sequence LGSNGCKKLLK [SEPSECS_Y334_Y334C] has a phosphorylation enrichment of 0.472. Sequence KNGSNYVVKGN [KIT_Y823_D820G] has a phosphorylation enrichment of 0.375. Sequence WEPFGYAVTRC [PTPRT_Y412] has a phosphorylation enrichment of 0.458. Work on RSFLSYFTSHV [NEFL_Y442_P440L_YF] yielded a phosphorylation enrichment of 0.677. In the case of ADELEYSRTGL [MMUT_Y287_G284E], the phosphorylation enrichment is reported as 0.437. Sequence IIGNGYYFHVF [MYBPC3_Y1135_R1138H] has a phosphorylation enrichment of 0.491. YLQEIHNSNNQ [FGG_Y140_Y140H] showed a phosphorylation enrichment of 0.349. For EQPNPYMVLDI [ROCK2_Y1197_S1194P], the phosphorylation enrichment was 2.87.
